Test results published in patent US12636342B2, “TARS derived from Akkermansia muciniphila or fragment thereof, and use thereof” (KOREA RESEARCH INSTITUTE OF BIOSCIENCE AND BIOTECHNOLOGY, priority 2020, dated 2026).

Columns and labels:
[1] = test system: mouse model of dextran sulfate sodium (DSS)-induced colitis; test: DSS-induced colitis (inflammatory bowel disease) mouse model, intraperitoneal administration; format: in vivo; conditions: for distribution of B cells in the colon: normal mice
Procedure: We evaluated the anti-inflammatory function of AmTARS in a mouse model of dextran sulfate sodium (DSS)-induced colitis. First, we assessed dose-dependent responses (i.e., changes in body weight and colon length) to intraperitoneal (i.p.) administration of AmTARS (0.05-0.4 mg/kg) once every other day for 10 days (FIG. 10A).
The disease activity score was calculated by adding up scores ranging from 0 to 4 points for each item of bloody stool, diarrhea, and weight loss, and the epithelial damage score was calculated by assigning 0 to 4 points according to the degree of colon tissue damage.
Next, to measure IgA, mouse feces were collected and diluted in PBS containing a protein inhibitor, and then a supernatant with impurities removed was obtained, and 100 μL was placed in each well of a 96-well plate to perform protein coating at 4° C. for 2 h. The plate was washed three times with a washing solution (50 mM Tris, 0.2% in PBS) and then incubated with 100 μL of blocking solution at room temperature for 1-2 h, followed by washing. HRP conjugated IgA antibody (1:30000) was added and then incubated at room temperature for 1 h, followed by washing. Thereafter, 100 μL of a substrate solution was added, followed by incubation for 30 min, and then 50 μL of a stop solution was added, followed by measurement at 405-450 nm by an ELISA reader. […]

THP1 cells = test: Immunoblotting of AmTARS/TLR2-induced signaling molecules in THP1 cells; format: cell-based, human
Procedure: (A and B) Analysis of key molecules that inhibit the MAPK and PI3K/AKT signaling pathways. IL-10 produced by BMDMs pre-treated with inhibitors of ERK (PD98059, […]), p38 (SB203580, […]), MSK1/2 (SB747651A, 10 μM), CREB (666-15, 1 μM), PI3K (Wortmannin, 10 μM), and AKT1/2 (AKT1/2, 10 μM) for 1 h before treatment with either PBS or AmTARS for 24 h (n=6 per group) (A). Flow cytometry analysis of M2 macrophages in BMDMs pre-treated for 1 h with the indicated kinase inhibitors, before treatment with either PBS or AmTARS for 24 h (n=3 per group) (B). (C and D) Western blot analysis of MAPK signaling molecules in lysates of BMDMs (C) or THP1 cells (D) treated for different times with 0.5 μM AmTARS. (E) Western blot analysis of lysates of BMDMs pre-treated with α-IgG (Isotype, 1 μg ml-1) or α-TLR2 (1 μg ml-1) for 1 h before treatment with PBS, AmTARS (0.5 μM), or Pam3 (0.5 μM) for 30 min. (F and G) Western blot analysis of PI3K/AKT signaling molecules in lysates of BMDMs (F) or THP1 cells (G) treated with 0.5 μM AmTARS. (H) AmTARS activates both TLR2/1- and TLR2/6-mediated signaling. Activation of AKT, ERK, and CREB was measured by western blot analysis of lysates of THP1 cells pre-treated with α-IgG, α-TLR1, α-TLR2, or α-TLR6 (1 μg ml-1) for 1 h before treatment for 30 min with PBS or AmTARS (0.5 µM). Data shown in (A and B) are representative of three independent experiments, each with similar results (mean±SEM). P-values were calculated using an unpaired two-tailed Student's t-test. Data shown in (C-H) are representative and repeated at least three times.
Subsequently, we conducted immunoblotting assays to measure the time-dependent activation of AmTARS/TLR2-induced signaling molecules in both BMDMs and THP1 cells. AmTARS rapidly activated ERK, p38, and MSK1/2 within 15 min and, subsequently, phosphorylation of CREB at Ser133 (which is essential for IL-10 production) within 30 min in BMDMs (FIG. 31C) and THP1 cells (FIG. 31D). We then compared AmTARS-triggered TLR2 signaling with typical ligand-triggered signaling using Pam3CSK4 (the synthetic canonical TLR2/1 agonist, referred to hereafter as Pam3) in BMDMs stimulated for 30 min. […] By contrast, activation of NF-κB was greater in Pam3-treated BMDMs than in AmTARS-treated BMDMs (FIG. 31E).

[2] = DSS-induced colitis mice, i.p., AmTARS 0.2 mg/kg
[3] = DSS-induced colitis mice, particularly proximal colon, versus control mice
[4] = i.p. 0.05-0.4 mg/kg once every other day for 10 days
[5] = inflammatory bowel disease mouse model
[6] = normal mice (control of B cell-deficient experiment)

B1: Akkermansia muciniphila-derived threonyl-tRNA synthetase (TARS) (protein)
chain: MSEHKERKTLEERQQMSDLERLRHSCAHVLATAICRLWPDAQLAGGPAVDNGFYYDVELDHRISTEDFERIEEEMKKVVKENQVFQKEVISRADAMKMAESGELGALGPRSEPSRFKIDLLNDIPEDEEISLYRNGDFTDLCAGPHVGRTGNCKAFKIMSVASAFYKGDKNRPMLQRIYGTCFPNRTQLDEHLERLEEARRRDHRKLGRELGLFCIDESVGQGLILWKPKGALIRRSLQDFITEELDKLGYSQVYTPNIGKLDLYRTSGHFPYYQESQYAPIPERDAMEKLSQEGASCAELFNGLATGTIEGYMLKPMNCPHHIKIYANDAHSYRDLPVRLAEFGTVYRWEQSGELGGMTRVRGFTQDDAHIFCTPDQLAGEIRQCLGIVKTIFGTLGMTDYRVRLSMRDPESDKYVGSPENWDKAEQALREAAEWLGADYSEEAGEAAFYGPKIDFIVRDAIGREWQLGTVQVDYNLPERFDLHYTGADNKPHRPVMVHRAPFGSMERFTGLLIEHFEGKFPTWLSPEQVRVLPISDKVTDVAAAHRTALAARGVRVTVDETPDKIGAKIRNARLDRVPYMLVLGQREAEDGTVSVRHRDKGDLGAMPFEQFADLVAREIAERHISPVI
modifications: Akkermansia muciniphila TARS
therapeutic effects on colitis pathology ([1]; AmTARS 0.2 mg kg-1 versus mIL-10 0.02 mg kg-1): comparable with those of IL-10 | IL-10-positive macrophage (CD11b+F4/80+IL-10+) numbers within colonic cells ([1]; DSS-induced colitis mice): restored | IL-10 levels in serum ([1]; DSS-induced colitis mice): increased | body weight loss [1, 2]: ameliorated | colon shortening / shortening of the intestine [1, 2]: ameliorated | disease activity scores [1, 2]: ameliorated | disruption of the epithelial lining [1, 3]: significantly lower | epithelial damage score [1, 3]: significantly lower | colitis-induced infiltration of inflammatory monocytes (CD11b+F4/80−) ([1]; colon cells, DSS-induced colitis mice): significantly suppressed | body weight loss ([1]; i.p. 0.4 mg/kg, up to 7 days): significantly attenuated | body weight loss, dose response [1, 4]: attenuated body weight loss and colon shortening in a dose-dependent manner | colon shortening, dose response [1, 4]: attenuated body weight loss and colon shortening in a dose-dependent manner | secretion of the cytokine IL-10 in the mouse plasma [1, 5]: increased the secretion | distribution of B cells in the colon [1, 5]: increase in B cells | distribution of B cells in the colon ([1]; inflammatory bowel disease mouse model, listed as TARS): significantly increased | amount of IgA increased due to an inflammatory response ([1]; mouse feces, ELISA): reduced the amount of IgA | colon tissue damage due to inflammatory bowel disease [1, 6]: alleviated | intestine length reduction due to inflammatory bowel disease [1, 6]: alleviated | time to activation of AKT (THP1 cells; 0.5 μM AmTARS): ≤ 15 min | time to activation of ERK (THP1 cells; 0.5 μM AmTARS): ≤ 15 min | time to activation of MSK1/2 (THP1 cells; 0.5 μM AmTARS): ≤ 15 min | time to activation of PI3K (THP1 cells; 0.5 μM AmTARS): ≤ 15 min | time to activation of p38 (THP1 cells; 0.5 μM AmTARS): ≤ 15 min | time to inhibition of GSK3β activity (phosphorylation at Ser9) (THP1 cells; 0.5 μM AmTARS): ≤ 15 min | time to phosphorylation of CREB at Ser133 (THP1 cells; 0.5 μM AmTARS): ≤ 30 min | AmTARS-induced TLR2 signaling (AKT, ERK, CREB) after antibody pre-treatment (THP1 cells; α-TLR1, α-TLR2 or α-TLR6 1 μg ml-1 1 h, then AmTARS 0.5 μM 30 min): shut down by antibodies targeting TLR1, TLR6, and TLR2
